{"source": "IntAct's records for PubMed 17872410", "parents": {"B1": {"name": "Adagio protein 3 (Arabidopsis thaliana (Mouse-ear cress)), Q9C9W9 (parent)", "chain": "MAREHAIGEATGKRKKRGRVEEAEEYCNDGIEEQVEDEKLPLEVGMFYYPMTPPSFIVSDALEPDFPLIYVNRVFEVFTGYRADEVLGRNCRFLQYRDPRAQRRHPLVDPVVVSEIRRCLEEGIEFQGELLNFRKDGTPLVNRLRLAPIRDDDGTITHVIGIQVFSETTIDLDRVSYPVFKHKQQLDQTSECLFPSGSPRFKEHHEDFCGILQLSDEVLAHNILSRLTPRDVASIGSACRRLRQLTKNESVRKMVCQNAWGKEITGTLEIMTKKLRWGRLARELTTLEAVCWRKFTVGGIVQPSRCNFSACAVGNRLVLFGGEGVNMQPLDDTFVLNLDAECPEWQRVRVTSSPPGRWGHTLSCLNGSWLVVFGGCGRQGLLNDVFVLDLDAKHPTWKEVAGGTPPLPRSWHSSCTIEGSKLVVSGGCTDAGVLLSDTFLLDLTTDKPTWKEIPTSWAPPSRLGHSLSVFGRTKILMFGGLANSGHLKLRSGEAYTIDLEDEEPRWRELECSAFPGVVVPPPRLDHVAVSMPCGRVIIFGGSIAGLHSPSQLFLIDPAEEKPSWRILNVPGKPPKLAWGHSTCVVGGTRVLVLGGHTGEEWILNELHELCLASRQDSDL", "partner": "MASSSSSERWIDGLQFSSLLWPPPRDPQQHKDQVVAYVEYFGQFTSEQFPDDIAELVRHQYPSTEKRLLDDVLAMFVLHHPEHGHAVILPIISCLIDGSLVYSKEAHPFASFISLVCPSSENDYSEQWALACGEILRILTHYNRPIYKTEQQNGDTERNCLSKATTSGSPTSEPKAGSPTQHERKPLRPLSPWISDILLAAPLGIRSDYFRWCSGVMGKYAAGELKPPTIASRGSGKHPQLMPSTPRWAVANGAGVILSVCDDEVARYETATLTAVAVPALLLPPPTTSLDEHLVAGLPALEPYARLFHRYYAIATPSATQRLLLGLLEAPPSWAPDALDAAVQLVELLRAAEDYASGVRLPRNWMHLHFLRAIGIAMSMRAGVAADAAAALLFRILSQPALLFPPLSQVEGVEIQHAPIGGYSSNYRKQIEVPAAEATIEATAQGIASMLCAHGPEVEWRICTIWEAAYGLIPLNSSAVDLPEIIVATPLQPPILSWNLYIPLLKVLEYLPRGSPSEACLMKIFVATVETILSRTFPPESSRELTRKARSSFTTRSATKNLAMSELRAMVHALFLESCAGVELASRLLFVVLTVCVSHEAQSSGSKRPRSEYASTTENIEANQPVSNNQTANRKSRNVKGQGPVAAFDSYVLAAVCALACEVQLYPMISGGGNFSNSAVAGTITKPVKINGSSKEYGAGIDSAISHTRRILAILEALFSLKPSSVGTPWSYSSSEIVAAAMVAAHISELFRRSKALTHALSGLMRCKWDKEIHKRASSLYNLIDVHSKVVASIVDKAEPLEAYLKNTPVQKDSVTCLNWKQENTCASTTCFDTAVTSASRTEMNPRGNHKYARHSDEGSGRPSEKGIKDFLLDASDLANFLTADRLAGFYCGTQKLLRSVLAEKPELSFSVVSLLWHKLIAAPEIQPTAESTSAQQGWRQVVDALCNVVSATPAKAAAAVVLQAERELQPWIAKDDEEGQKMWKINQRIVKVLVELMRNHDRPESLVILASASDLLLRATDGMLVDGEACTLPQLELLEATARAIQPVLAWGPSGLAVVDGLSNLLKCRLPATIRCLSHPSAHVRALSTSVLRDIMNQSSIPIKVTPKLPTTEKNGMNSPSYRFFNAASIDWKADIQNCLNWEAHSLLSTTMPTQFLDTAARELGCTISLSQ"}}, "data": [{"variants_of": "B1", "settings": "with gigan_arath GI", "values": [{"variant": "R92D", "effect of a mutation on the interaction": "decreasing interaction"}, {"variant": "Q163L", "effect of a mutation on the interaction": "disrupting interaction"}, {"variant": "C91A", "effect of a mutation on the interaction": "decreasing interaction"}]}]}
